B1: library; numbered along this chain (parent)
chain: MRKPRAAVGSGHRKQAASQEGRQKHAKNNSQAKPSACDGLARQPEEVVLQASVSSYHLFRDVAEVTAFRGSLLSWYDQEKRDLPWRRRAEDEMDLDRRAYAVWVSEVMLQQTQVATVINYYTGWMQKWPTLQDLASASLEEVNQLWAGLGYYSRGRRLQEGARKVVEELGGHMPRTAETLQQLLPGVGRYTAGAIASIAFGQATGVVDGNVARVLCRVRAIGADPSSTLVSQQLWGLAQQLVDPARPGDFNQAAMELGATVCTPQRPLCSQCPVESLCRARQRVEQEQLLASGSLSGSPDVEECAPNTGQCHLCLPPSEPWDQTLGVVNFPRKASRKPPREESSATCVLEQPGALGAQILLVQRPNSGLLAGLWEFPSVTWEPSEQLQRKALLQELQRWAGPLPATHLRHLGEVVHTFSHIKLTYQVYGLALEGQTPVTTVPPGARWLTQEEFHTAAVSTAMKKVFRVYQGQQPGTCMGSKRSQVSSPCSRKKPRMGQQVLDNFFRSHISTDAHSLNSAAQ

Variants of: B1
Assay: 8OG:A repair function score (normalized; synonymous = 0, nonsense = -1) (normalized log-likelihood score); higher = more repair activity (WT-like)
Conditions: with 8OG:A DNA repair reporter (GFP) in HEK-293 MUTYH KO cells
Outline: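 After 72 h, viable mCherry+ cells were split into GFP+ (repair) and GFP− bins in three replicates per tile. These cells were MUTYH knockout HEK-293 cells holding lentiviral MUTYH cDNA NNN codon-scan libraries, kept in 10 pg/ml doxycycline and co-transfected with mCherry plus an 8OG:A GFP repair reporter. Sequencing of tile amplicons gave per-tile Rosace fitness scores, normalized into a repair function score anchored on synonymous and nonsense distributions. Synonymous medians were fixed at 0, nonsense at -1, and variants under 300 counts per million at the start were removed.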
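Note: cells sorted at 72 h after reporter transfection.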

8OG:A repair function score: each site, then its substitutions
N329: F -0.345 | K -0.105 | E -0.365 | P -0.438 | D -0.288 | L -0.301 | V -0.246 | G -0.365 | H -0.276 | S -0.235 | A -0.161 | T -0.361 | W -0.525 | C -0.102 | R -0.0858 | I -0.365 | M -0.264 | Q -0.0134 | Y -0.104
G326: M -0.634 | D -0.344 | I -0.411 | S -0.307 | H -0.203 | N -0.0169 | K -0.179 | R -0.176 | L -0.422 | P -0.475 | Q -0.123 | C -0.508 | T -0.298 | E -0.144 | Y -0.435 | A -0.264 | F -0.812 | V -0.514
K333: F -0.221 | G -0.131 | C 0.053 | S -0.141 | V -0.0946 | E -1.01 | P 0.038 | A 0.0254 | H -0.0128 | M -0.0664 | Q -0.166 | I -0.0317 | L -0.227 | N -0.205 | D -0.903 | W -0.0431 | Y -0.0195 | T -0.137 | R 0.0284
W321: G -0.258 | C -0.313 | K -0.189 | V -0.0988 | M -0.218 | R -0.203 | Q -0.205 | P -0.252 | T -0.301 | A -0.265 | F -0.00541 | L -0.0977 | I -0.25 | Y -0.123 | D -0.53 | E -0.0643 | S -0.257
P331: S -0.197 | L -0.609 | C -0.105 | G -0.0671 | I -0.596 | N -0.316 | D -0.501 | R -0.474 | W -0.233 | Y -0.276 | V -0.568 | E -0.568 | T -0.351 | A -0.0508 | M -0.254 | H -0.439 | K -0.332 | Q -0.608 | F -0.357
Q323: A -0.0752 | G -0.0264 | F -0.0491 | N 0.061 | T 0.0271 | C -0.0398 | W -0.0368 | I -0.141 | L -0.0798 | M -0.0348 | D 0.0164 | H -0.0776 | S -0.0829 | K -0.0269 | P -0.0158 | R -0.099 | Y -0.013 | V -0.00203 | E -0.0118
E319: Y -0.0495 | V -0.0112 | W -0.0166 | S 0.0138 | T 0.123
V328: Q 0.0461 | C 0.0567 | W -0.0588 | M -0.0227 | S -0.00939 | N -0.0823 | P -0.507 | R 0.0191 | Y -0.134 | F -0.215 | T -0.077 | E -0.157 | L 0.0391 | G -0.0273 | D -0.227 | A -0.0621 | H -0.251 | I -0.0358 | K 0.0221
T324: G -0.0488 | W -0.0525 | E -0.099 | C -0.0556 | A -0.0315 | Y -0.0755 | R 0.0185 | V -0.0374 | I -0.0894 | Q -0.0692 | L -0.000813 | D -0.162 | S 0.0429 | H -0.0241 | F 0.00371 | P -0.236 | K 0.056 | N -0.188 | M 0.0106
D322: C -0.00563 | N -0.00231 | E 0.0971 | H -0.147 | K 0.00699 | W -0.0845 | A -0.0859 | R -0.044 | I 0.0378 | L -0.0483 | S -0.0836 | P -0.322 | Q -0.0416 | G -0.115 | F -0.0672 | Y -0.0375 | T -0.0961 | V 0.0232 | M 0.0738
F330: C -0.248 | Q -0.638 | E -0.809 | R -0.958 | P -1.04 | N -1.18 | V -0.145 | H -0.37 | S -0.765 | G -0.999 | M -0.174 | W -0.017 | I -0.18 | T -0.478 | Y -0.0696 | L -0.149 | A -0.791 | D -1.15 | K -0.928
V327: K -0.459 | N -0.696 | Y -0.526 | M -0.375 | S -0.274 | F -0.513 | D -0.777 | P -0.051 | H -0.532 | C -0.201 | E -0.178 | W -0.425 | G -0.53 | Q -0.4 | R -0.583 | I -0.257 | L -0.388 | A -0.205 | T -0.119
K337: C -0.225 | L -0.136 | H -0.0482 | M -0.112 | I -0.106 | G -0.0801 | E -0.0878 | D -0.151 | F -0.221 | A -0.0726
L325: T -0.113 | P -0.354 | D -0.204 | E -0.08 | Y -0.173 | Q -0.141 | G -0.16 | V -0.142 | S -0.135 | C -0.0972 | N -0.136 | I -0.054 | F -0.00965 | M -0.0835 | W -0.0969 | R -0.00254 | K -0.0528 | H -0.0759 | A -0.0759
R332: T -0.246 | C -0.154 | M -0.332 | P -0.191 | G -0.193 | D -0.574 | A -0.0476 | E -0.449 | I -0.256 | Y -0.166 | W 0.0485 | V -0.216 | S -0.0346 | F -0.0556 | Q -0.0904 | H -0.163 | L -0.109 | K -0.206 | N -0.315
R336: H -0.173 | Y -0.18 | G -0.112 | T -0.118 | K -0.0529 | I -0.113 | M -0.117 | D -0.271 | V -0.148 | N -0.101 | A -0.0267 | Q -0.218 | L -0.22 | P -0.136 | F -0.164 | C -0.0115 | E -0.151 | W -0.0779 | S -0.097
P320: A -0.0474 | F -0.0659 | C -0.000958 | M -0.0571 | I -0.0716 | N -0.0442 | R -0.0447 | G 0.00385 | Q -0.104 | K -0.1 | E -0.11 | L -0.0348 | Y -0.0806 | W -0.179 | D -0.134 | H 0.0683 | V -0.0867 | T -0.0175 | S -0.0238
S335: V -0.0166 | H 0.0625 | K 0.029 | C -0.0251 | A 0.0331 | P -0.028 | Q -0.044 | R -0.0718 | D -0.0695 | W -0.0943 | F -0.0626 | M -0.0531 | N 0.0783 | Y -0.0347 | G -0.02 | E -0.0481 | T 0.005 | I -0.000462 | L -0.0705
A334: T -0.0373 | L -0.0917 | F -0.0391 | R 0.0363 | H 0.0495 | Y 0.0534 | I -0.198 | E -0.0264 | C -0.0888 | N 0.0217 | Q -0.103 | S 0.0289 | D -0.242 | K 0.00736 | V 0.00558 | P -0.147 | G -0.0343 | W -0.28

Reference: the supplement of paper PMC11908140
